According to patent US20110250202A1:

Tests used:
[1] = target: recombinant penicillin binding protein 2a (PBP2a) (Staphylococcus aureus); assay: SPR (BIACORE), rPBP2a coupled on CM5 chip, antibody flowed at 0 to 5 nM; purified antibody
[2] = target: recombinant penicillin binding protein 2a (PBP2a) (Staphylococcus aureus); assay: SPR (BIACORE), rPBP2a coupled on CM5 chip, antibody flowed at 0 to 5 nM; culture supernatant 1
[3] = target: recombinant penicillin binding protein 2a (PBP2a) (Staphylococcus aureus); assay: SPR (BIACORE), rPBP2a coupled on CM5 chip, antibody flowed at 0 to 5 nM; culture supernatant 2

B1: 3B12 antibody (antibody, V domains shown)
VH: EVQLQQSGAEFVKPGASVKLSCRVSGFNIKDYYINWVKQRTEQGLEWIGRIDPEDGETKYAPKFQGKATITADTSSNTANLHLSSLTSADTAVYYCASSGYAFAWFLYWGQGTLVTVSA
VL: DILLTQSPAILSVSPGERVSFSCRASQSIGTSIHWYQQRTNGSPRLLIKYASESISGIPSRFSGSGSGTDFTLSINSVESEDIADYYCQQSNRWPFTFGSGTKLEIKR
Kd [1]: 176 pM
Kd [2]: 4850 pM
Kd [3]: 6050 pM

B2: 2B2 antibody (antibody, V domains shown)
VH: VQLQQSGAEFVKRPGASVKLSCRVSGFNIKDYYINWVKQRTEQGLEWIGRIDPEDGETKYAPKFQGKATITADTSSNTANLHLSSLTSADTAVYYCASSGYAFAWFLYWGQGTLVTVSA
VL: DILLTQSPAILSVSPGERVSFSCRASQSIGTSIHWYQQRTNGSPRLLIKYASESISGIPSRFSGSGSGTDFTLSINSVESEDIADYYCQQSNRWPFTFGSGTKLEIKR
Kd [1]: 359 pM
Kd [3]: 2150 pM

B3: 2G7 antibody (antibody, V domains shown)
VH: EVQLQQSGAELVKPGASVKLSCTASGFNIKDYFIHWVNQRTKQGLEWIGRIDPEDGETKYAPKFQGKATLTADTTSNTADLQLSSLTSEDTAVYYCVLYYSRSFDYWGQGTTLTVSS
VL: QNVLTQSPAIMSASPGEKVTMTCSASSSVSYMHWYQQKSGTSPKRWIYDTSKLASGVPARFSGSGSGTSYSLTISSMEAEDAATYYCQQWSSNPLTFGAGTKLELKR
Kd [1]: 1.18 pM
Kd [2]: 0.204 pM
Kd [3]: 0.0022 pM
